Legend:
[1] = molecular target: T1, Human Tau 2N4R, wild type, recombinant full length (human, UniProt P10636 2-758); assay: SPR BIAcore, mAb captured by anti-mouse IgG, Tau flowed, 1:1 Langmuir
T1 construct: Full length 2N4R isoform; monomer in SPR and ELISA; heparin-induced aggregates or seeds in the functional assays; also called Tau441; Tau-441
Procedure: (§1) All experiments were performed using a BIAcore™ T-100 instrument (GE Healthcare). 10 μL anti-human IgG (monoclonal mouse anti-human Fc) from human antibody capture kit (GE Healthcare) was diluted to 25 μL/mL in 200 μL final immobilization buffer (10 mM sodium acetate, pH 5.0). The flow rate was set to 5 μL/min, flowpath 1. Fifty μL N-hydroxysuccinamide (NETS) and 50 μL 1-ethyl-3-(3-dimethylaminopropyl) carbidiimide (EDC) were mixed and injected for 420 sec to activate the CM5 chip surface. The diluted antibody was injected for 360 seconds followed by 1 M ethanolamine for 420 seconds. The flowpath was then switched to flowpath 2. A new EDC/NHS mixture was prepared and the procedure was repeated for flow cell 2. The surface was conditioned by 2 injections of 30 sec using flowpath 1, 2 at 30 μL/min of 3M MgCl₂. For the anti-mouse surface, 10 μL anti-mouse IgG (polyclonal rabbit anti-mouse IgG) from mouse antibody capture kit (GE Healthcare) was diluted to 30 μL/mL in 324 μL final immobilization buffer (10 mM sodium acetate, pH 5.0). The flow rate was set to 5 μL/min, flowpath 3. Fifty μL NHS and 50 μL EDC were mixed and injected for 420 sec to activate the chip surface. The diluted antibody was injected for 420 sec. 1 M ethanolamine was injected for 420 sec. Flow path was switched to flowpath 4. A new EDC/NHS mixture was prepared and the procedure was repeated for flow cell 4. The surface was conditioned by 2 injections of 30 sec using flowpath 3, 4 at 30 μL/min of 10 mM glycine, pH 1.7.
(§2) Binding of humanized and mouse antibodies were analyzed by BIAcore™ to determine their relative association rates (ka), dissociation rates (kd), and equilibrium binding constants (KD). Anti-mouse or anti-human antibodies were immobilized on a CM5 chip and sample mAbs were captured on the chip. 2N4R Tau was flowed over the chip and binding observed. The binding constants kₐ, kd, and KD were determined using a 1:1 Langmuir fitting model. Both 7G6-HCzu12-based mAbs had similar kₐ and kd values (Table 8). However, the kₐ of 7G6-HCzu11 was decreased, though the kd was unaffected. Therefore, human residues in the Vh3 framework impact binding to Tau.

[2] = molecular target: T1, Human Tau 2N4R, wild type, recombinant …; assay: as above; remark: listed apart in the source
Procedure: as §1, §2

[3] = molecular target: T1, Human Tau 2N4R, wild type, recombinant …; assay: SPR BIAcore, biotinylated mAb on streptavidin (CAP) chip, single cycle, 1:1 Langmuir
Procedure: 400 μg of each antibody was diluted to 2 mg/mL and buffer-exchanged into 0.1 M sodium bicarbonate, pH 8.3 using 0.5 mL Zeba™ 40 kDa MWCO desalting columns (Thermo). NHS-PEG4-biotin, prepared immediately before use by dissolving in water to a 20 mM final stock concentration, was added to antibodies at a 5:1 molar ratio (biotin:MAb) and conjugated for 1 hr at room temperature. Excess biotin was removed by two sequential buffer exchanges into 1×DPBS using 0.5 mL Zeba™ 40 kDa MWCO desalting columns. For the BIAcore™ assay, antibodies were diluted to 2 μg/mL in PBS-P+/0.2% BSA (the same preparation used for the running buffer), centrifuged at 14,000 g for 5 min at room temperature, and the supernatant transferred to a new tube. Injection time was subsequently determined for each antibody to achieve a capture level of ˜225 RU.
Biotinylated humanized and mouse mAbs were captured on a streptavidin-coated chip and kₐ, kd, and KD were determined for binding to Tau (Table 11). […] The affinity of 7G6-HCzu8-LCzu6, 7G6-HCzu24-LCzu15, 7G6-HCzu24-LCzu18, 7G6-HCzu25-LCzu15, and 7G6-HCzu25-LCzu18 were all similar.

[4] = molecular target: T2, P301S mutant human 2N4R Tau, recombinant full length (human, UniProt P10636 2-758); assay: SPR; KD on P301S-2N4R Tau against KD on wild type 2N4R Tau
T2 construct: The equivalent P301S mutant of 2N4R Tau; also called P301S-2N4R Tau; P301S Tau
Procedure: Purified antibodies from hybridomas were captured by protein A/G immobilized on a CM5 sensor chip (GE Healthcare). The wild type and P301S Tau proteins were then injected onto the sensor chip at five different concentrations and the affinity (equilibrium dissociation constant, KD) was calculated according to the manufacturer's instruction.

[5] = molecular target: T3, HVPGG site of Tau (15-mer array peptides containing HVPGG) (human); assay: peptide microarray; HVPGG site of the fourth repeat region against HQPGG (repeat region 1)
T3 peptide: HVPGG
Procedure: (§3) The diluted antibody was incubated on the chip for 16 hours at 4° C. with shaking at 140 rpm. Primary antibody was removed and the chip was washed in PBS (pH 7.4)/0.05% Tween 20. Wash buffer was removed and goat anti-mouse IgG (H+L) DyLight™680 (1:5000) and an anti-HA tag DyLight™ 800 (1:2000) in the same buffer as the primary antibody was then incubated for 45 minutes at room temperature on the chip. Detection antibody was removed and the chip was washed once again as previously. Fluorescence images were acquired on the LI-COR Odyssey™ Imaging System and the microarray data was finally analyzed using the PepSlide™ Analyser software.

[6] = molecular target: T3, HVPGG site of Tau (15-mer array …); assay: peptide microarray; HVPGG site of the fourth repeat region against HKPGG (repeat region 3)
Procedure: as §3

T1 sequence (P10636 other isoform, or with tags, fused parts or gaps limits assumed): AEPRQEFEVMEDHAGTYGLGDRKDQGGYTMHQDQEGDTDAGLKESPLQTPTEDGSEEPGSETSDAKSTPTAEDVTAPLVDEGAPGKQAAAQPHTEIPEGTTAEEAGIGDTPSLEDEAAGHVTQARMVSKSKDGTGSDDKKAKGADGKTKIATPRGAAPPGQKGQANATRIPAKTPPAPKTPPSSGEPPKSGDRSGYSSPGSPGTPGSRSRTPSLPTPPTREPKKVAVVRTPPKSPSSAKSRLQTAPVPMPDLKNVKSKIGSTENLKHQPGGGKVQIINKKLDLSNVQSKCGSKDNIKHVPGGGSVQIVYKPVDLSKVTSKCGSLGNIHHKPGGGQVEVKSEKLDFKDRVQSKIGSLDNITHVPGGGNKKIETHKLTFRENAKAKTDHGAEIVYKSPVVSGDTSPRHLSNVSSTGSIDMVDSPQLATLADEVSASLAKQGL
T2 sequence (P10636 other isoform, or with tags, fused parts or gaps P301S P301S limits assumed): as the sequence (P10636 other isoform, or with tags, fused parts or gaps limits assumed) above, with P300S counted along it

B1: murine 7G6 antibody (antibody, mouse IgG2b, V domains shown)
VH: QVQLLQPGAELVKPGASVIMSCKASGYTFTTYWITWVKQRPGQGLEWIGDIYPGSSICNYNEKFKSKATLTVDTSSSTAYMQLNSLTSEDSAVYYCAREDGYDAWFAYWGQGTLVTVSA
VL: DVLMTQTPLSLPVSLGDQASISCRSSQSILHSNGNTYLEWYLQKPGQSPKLLICKVSNRFSGVPDRFSGSGSGTDFTLKISRVEAEDLGVYYCFQGSHVPFTFGSGTKLEIK
notes: Mouse IgG2b, kappa, purified from hybridoma; also called ms7G6; mouse 7G6
B1 gave a Kd [1] of 3.31 nM, a koff [1] of 0.00153 s⁻¹ and a kon [1] of 464000 M⁻¹ s⁻¹. For the same binder, the Kd [2] was 3.31 nM, the koff [2] was 0.00153 s⁻¹ and the kon [2] was 464000 M⁻¹ s⁻¹. The Kd [3] was 0.0636 nM, the koff [3] was 0.000195 s⁻¹ and the kon [3] was 3.11e+06 M⁻¹ s⁻¹. The Fold difference [4] was 11 fold, the “fold preference in binding (average signal intensities)” value [5] was 35 fold and the “fold preference in binding (average signal intensities)” value [6] was 33 fold.

Source: patent publication US20190112365A1 (EISAI R AND D MANAGEMENT, published 2019)
